What all share (assay): MST
One assay has as its target human mutant SOD1^G85R (human, fluorescently labeled (NanoTemper BLUE protein-labeling kit) where it was the labelled partner in MST).
Assay [1] has as its target wild type human SOD1 (Cu/Zn superoxide dismutase) (human, UniProt P00441 1-154, fluorescently labeled (NanoTemper BLUE protein-labeling kit) where it was the labelled partner in MST).
For a further assay, the target named is human mutant SOD1^G93A (human, fluorescently labeled (NanoTemper BLUE protein-labeling kit) where it was the labelled partner in MST).
Target sequence (chain, as listed by the source G93A): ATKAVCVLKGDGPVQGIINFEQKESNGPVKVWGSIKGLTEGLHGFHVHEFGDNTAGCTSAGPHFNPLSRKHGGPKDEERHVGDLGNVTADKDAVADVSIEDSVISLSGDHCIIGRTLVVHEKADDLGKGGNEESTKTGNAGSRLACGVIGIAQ

wild type human SOD1 (Cu/Zn superoxide dismutase), sequence (P00441 whole entry): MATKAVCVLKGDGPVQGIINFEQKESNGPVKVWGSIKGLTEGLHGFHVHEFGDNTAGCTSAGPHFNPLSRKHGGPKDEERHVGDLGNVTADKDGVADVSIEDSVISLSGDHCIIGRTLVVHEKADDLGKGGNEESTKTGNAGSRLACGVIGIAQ

B1: 1-26 N-Terminal peptide of VDAC1 (peptide)
peptide: MAVPPTYADLGKSARDVFTKGYGFGL
In general, EC50 refers to the midpoint of the concentration-response curve. Low readings indicate higher potency in that assay, high ones lower potency in that assay. Consider B1, for which the EC50 in the assay with human mutant SOD1^G85R is 3.75 µM; in assay [1] it was over 200 µM; with human mutant SOD1^G93A it was 3.75 µM.

For the origin of these results see publication PMC6702328 (2019).
